{"source": "patent WO2019054460A1", "about": "(dated 2019)", "binders": {"B1": {"name": "25H4-4F9 antibody (antibody, V domains shown)", "VH": "EVQLQQSGPELVKPGASVKISCKASGYSFTGYFMNWVKQSQGKSLESIGRNNPYNGDSIYNQKFKGKATLTVDKSSNTAHMELRSLTSEDSAVYYCARLMIFDAYYAMDYWGQGTSVTVSS", "VL": "DIQMTQTTSSLSASLGDRVTISCRASQDIRNYLNWYQQKPDGTVKLLIYYTSRLHSGVPSRFSGSGSGTDYSLTISNLEQEDIATYFCQQDSKHPWTFGGGTKLEIK"}, "B2": {"name": "33H4-1G3 antibody (antibody, V domains shown)", "VH": "EVQLQQSGPELVKPGASVKMSCKASGYSFSGYFMNWVKQSHGKSLEWIGRINPYNGDTLYNQKFKGKATLTVDKSSNTIYMELRSLTSEDSALYYCARLGIYDVYHYVMENWGQGTSVTVSS", "VL": "DIQMTQTTSSLSASLGDRVTISCRASQDIRNYLNWYQQKPDGTVKLLIYYTSRLHSGVPSRFSGSGSGTDYSLTISNLEQEDIATYFCQQDSKNPWTFGGGTKLEIK"}, "B3": {"name": "h85H7-2B11v2 (antibody, V domains shown)", "VH": "QVQLVQSGAEVKKPGASVKMSCKASGYSFSGYFMNWVKQAPGQGLEWIGRINPYNGDTFYNQKFKGRATLTVDTSTSTTYMELSSLRSEDTALYYCARLGIYDVYHYVMENWGQGTTVTVSS", "VL": "DIQMTQSTSSLSASLGDRVTITCRASQDIRNYLNWYQQKPGKTVKLLIYYTSRLHSGVPSRFSGSGSGTDYTLTISSLQQEDIATYFCQQDSKNPWTFGQGTKLEIK"}, "B4": {"name": "85H7-2B11 antibody (antibody, V domains shown)", "VH": "EVQLQQSGPELVKPGASVKMSCKASGYSFSGYFMNWVKQSHGKSLEWIGRINPYNGDTFYNQKFKGKATLTVDKSSSTTHMELRSLTSEDSALYYCARLGIYDVYHYVMENWGQGTSVTVSS", "VL": "DIQMTQTTSSLSASLGDRVTISCRASQDIRNYLNWYQQKPDGTVKLLIYYTSRLHSGVPSRFSGSGSGTDYSLTISNLEQEDIATYFCQQDSKNPWTFGGGTKLEIK"}, "B5": {"name": "h25H4-4F9v2 (antibody, V domains shown)", "VH": "EVQLVQSGAEVKKPGATVKISCKASGYSFTGYFMNWVKQAPGKGLESIGRNNPYNGDSIYNQKFKGRATLTVDTSTDTAYMELSSLRSEDTAVYYCARLMIFDAYYAMDYWGQGTTVTVSS", "VL": "DIQMTQSTSSLSASLGDRVTITCRASQDIRNYLNWYQQKPGKTVKLLIYYTSRLHSGVPSRFSGSGSGTDYTLTISSLQQEDIATYFCQQDSKHPWTFGQGTKLEIK"}, "B6": {"name": "h25H4-4F9v1 (antibody, V domains shown)", "VH": "EVQLVQSGPEVVKPGATVKISCKASGYSFTGYFMNWVKQAQGKSLESIGRNNPYNGDSIYNQKFKGKATLTVDKSTNTAYMELSSLRSEDTAVYYCARLMIFDAYYAMDYWGQGTTVTVSS", "VL": "DIQMTQSTSSLSASLGDRVTITCRASQDIRNYLNWYQQKPGKTVKLLIYYTSRLHSGVPSRFSGSGSGTDYTLTISSLQQEDIATYFCQQDSKHPWTFGQGTKLEIK"}, "B7": {"name": "h85H7-2B11v1 (antibody, V domains shown)", "VH": "EVQLVQSGPEVVKPGASVKMSCKASGYSFSGYFMNWVKQAHGQSLEWIGRINPYNGDTFYNQKFKGKATLTVDKSTSTTYMELSSLRSEDTALYYCARLGIYDVYHYVMENWGQGTTVTVSS", "VL": "DIQMTQSTSSLSASLGDRVTITCRASQDIRNYLNWYQQKPGKTVKLLIYYTSRLHSGVPSRFSGSGSGTDYTLTISSLQQEDIATYFCQQDSKNPWTFGQGTKLEIK"}, "B8": {"name": "h25H4-4F9v3 (antibody, V domains shown)", "VH": "EVQLVQSGAEVKKPGATVKISCKASGYSFTGYFMNWVKQAPGKGLESIGRNNPYNGDSIYNQKFKGRATLTVDTSTDTAYMELSSLRSEDTAVYYCARLMIFDAYYAMDYWGQGTTVTVSS", "VL": "DIQMTQSPSSLSASVGDRVTITCRASQDIRNYLNWYQQKPGKAVKLLIYYTSRLHSGVPSRFSGSGSGTDYTLTISSLQPEDIATYFCQQDSKHPWTFGQGTKLEIK"}, "B9": {"name": "h25H4-4F9v6 (antibody, V domains shown)", "VH": "EVQLVQSGAEVKKPGATVKISCKVSGYTFTGYFMNWVQQAPGKGLESMGRNNPYNGDSIYAEKFQGRVTITADTSTDTAYMELSSLRSEDTAVYYCARLMIFDAYYAMDYWGQGTTVTVSS", "VL": "DIQMTQSPSSLSASVGDRVTITCQASQDIRNYLNWYQQKPGKAVKLLIYYTSRLHSGVPSRFSGSGSGTDFTFTISSLQPEDIATYYCQQDSKHPWTFGQGTKLEIK"}, "B10": {"name": "h25H4-4F9v4 (antibody, V domains shown)", "VH": "EVQLVQSGAEVKKPGATVKISCKVSGYSFTGYFMNWVQQAPGKGLESIGRNNPYNGDSIYNEKFQGRVTITADTSTDTAYMELSSLRSEDTAVYYCARLMIFDAYYAMDYWGQGTTVTVSS", "VL": "DIQMTQSPSSLSASVGDRVTITCRASQDIRNYLNWYQQKPGKAVKLLIYYTSRLHSGVPSRFSGSGSGTDYTLTISSLQPEDIATYFCQQDSKHPWTFGQGTKLEIK"}, "B11": {"name": "h25H4-4F9v8 (antibody, V domains shown)", "VH": "EVQLVQSGAEVKKPGATVKISCKVSGYTFTGYFMNWVQQAPGKGLEWMGRNNPYNGDSIYAEKFQGRVTITADTSTDTAYMELSSLRSEDTAVYYCARLMIFDAYYAMDYWGQGTTVTVSS", "VL": "DIQMTQSPSSLSASVGDRVTITCQASQDIRNYLNWYQQKPGKAPKLLIYYTSRLETGVPSRFSGSGSGTDFTFTISSLQPEDIATYYCQQDSKHPWTFGQGTKLEIK"}, "B12": {"name": "h25H4-4F9v5 (antibody, V domains shown)", "VH": "EVQLVQSGAEVKKPGATVKISCKVSGYSFTGYFMNWVQQAPGKGLESIGRNNPYNGDSIYNEKFQGRVTITADTSTDTAYMELSSLRSEDTAVYYCARLMIFDAYYAMDYWGQGTTVTVSS", "VL": "DIQMTQSPSSLSASVGDRVTITCQASQDIRNYLNWYQQKPGKAVKLLIYYTSRLHSGVPSRFSGSGSGTDFTFTISSLQPEDIATYYCQQDSKHPWTFGQGTKLEIK"}, "B13": {"name": "h85H7-2B11v3 (antibody, V domains shown)", "VH": "QVQLVQSGAEVKKPGASVKMSCKASGYSFSGYFMNWVKQAPGQGLEWIGRINPYNGDTFYNQKFKGRATLTVDTSTSTTYMELSSLRSEDTALYYCARLGIYDVYHYVMENWGQGTTVTVSS", "VL": "DIQMTQSPSSLSASVGDRVTITCRASQDIRNYLNWYQQKPGKAVKLLIYYTSRLHSGVPSRFSGSGSGTDYTLTISSLQPEDIATYFCQQDSKNPWTFGQGTKLEIK"}}, "key": {"[1]": {"target": "RAMP2 expressed on the cell surface of HUVEC (human umbilical vein endothelial cells) (human) (UniProt O60895)", "sequence (O60895 43-175)": "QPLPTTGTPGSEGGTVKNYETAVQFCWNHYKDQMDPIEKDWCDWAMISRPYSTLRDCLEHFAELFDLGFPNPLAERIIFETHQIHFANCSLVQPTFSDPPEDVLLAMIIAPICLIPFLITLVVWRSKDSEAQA", "test": "cell-based or functional assay"}, "[2]": {"target": "T1, human RAMP2 co-expressed with human CRLR on CHO-K1 cells (hCR2-CHOK1) (human, UniProt O60895 43-175; Q16602 23-461)", "T1 sequence (O60895 43-175, chain 1 of 2)": "as the sequence (O60895 43-175) above", "T1 sequence (Q16602 23-461, chain 2 of 2)": "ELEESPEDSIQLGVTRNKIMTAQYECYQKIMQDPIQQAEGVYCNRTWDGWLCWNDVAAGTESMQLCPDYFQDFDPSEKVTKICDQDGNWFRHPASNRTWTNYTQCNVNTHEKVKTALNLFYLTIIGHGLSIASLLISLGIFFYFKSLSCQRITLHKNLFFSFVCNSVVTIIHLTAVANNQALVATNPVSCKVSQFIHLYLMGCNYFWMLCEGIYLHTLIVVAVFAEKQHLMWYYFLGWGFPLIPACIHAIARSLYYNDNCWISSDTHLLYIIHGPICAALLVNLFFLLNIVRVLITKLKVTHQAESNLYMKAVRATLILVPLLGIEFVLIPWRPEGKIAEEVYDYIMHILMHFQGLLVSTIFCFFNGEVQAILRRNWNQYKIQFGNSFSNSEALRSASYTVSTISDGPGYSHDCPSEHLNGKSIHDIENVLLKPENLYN", "test": "cell-based or functional assay"}, "[3]": {"target": "T1, human RAMP2 co-expressed with human …", "test": "Cell ELISA on fixed hCR2-CHOK1 cells, 1/2 serial dilution from 67.5 nM, GraphPad Prism 7"}, "[4]": {"target": "RAMP2 expressed on the cell surface of HUVEC (human umbilical vein endothelial cells) (human, UniProt O60895 43-175)", "sequence (O60895 43-175)": "as the sequence (O60895 43-175) above", "test": "cell-based or functional assay"}, "[5]": {"target": "T1, human RAMP2 co-expressed with human …", "test": "Cell ELISA on fixed hCR2-CHOK1 cells, 1/10 serial dilution from 67 nM, anti-human IgG Fc-HRP, GraphPad Prism 7"}}}
{"binder": "B1", "values": [{"measurement": "HUVEC proliferation upon AM addition, 10 nM antibody (OD450, % of no antibody)", "setting": "[1]", "value": 30, "unit": "%"}, {"measurement": "IC50 values for inhibition of HUVEC proliferation", "setting": "[1]", "value": 1.2, "unit": "nM"}, {"measurement": "IC50 values for cAMP inhibition", "setting": "[2]", "value": 0.15, "unit": "nM"}, {"measurement": "EC50", "setting": "[3]", "value": 0.4, "unit": "nM"}]}
{"binder": "B2", "values": [{"measurement": "HUVEC proliferation upon AM addition, 10 nM antibody (OD450, % of no antibody)", "setting": "[1]", "value": 30, "unit": "%"}, {"measurement": "IC50 values for inhibition of HUVEC proliferation", "setting": "[1]", "value": 1.6, "unit": "nM"}, {"measurement": "IC50 values for cAMP inhibition", "setting": "[2]", "value": 0.045, "unit": "nM"}, {"measurement": "EC50", "setting": "[3]", "value": 0.3, "unit": "nM"}]}
{"binder": "B3", "values": [{"measurement": "HUVEC growth inhibition rate (IC50)", "setting": "[4]", "value": 9.5, "unit": "nM"}, {"measurement": "IC50 values for cAMP inhibition", "setting": "[2]", "value": 0.11, "unit": "nM"}, {"measurement": "EC50", "setting": "[5]", "value": 0.24, "unit": "nM"}]}
{"binder": "B4", "values": [{"measurement": "HUVEC proliferation upon AM addition, 10 nM antibody (OD450, % of no antibody)", "setting": "[1]", "value": 30, "unit": "%"}, {"measurement": "IC50 values for inhibition of HUVEC proliferation", "setting": "[1]", "value": 0.8, "unit": "nM"}, {"measurement": "IC50 values for cAMP inhibition", "setting": "[2]", "value": 0.03, "unit": "nM"}, {"measurement": "EC50", "setting": "[3]", "value": 0.14, "unit": "nM"}]}
{"binder": "B5", "values": [{"measurement": "HUVEC growth inhibition rate (IC50)", "setting": "[4]", "value": 10.9, "unit": "nM"}, {"measurement": "IC50 values for cAMP inhibition", "setting": "[2]", "value": 0.14, "unit": "nM"}, {"measurement": "EC50", "setting": "[5]", "value": 1.05, "unit": "nM"}]}
{"binder": "B6", "values": [{"measurement": "HUVEC growth inhibition rate (IC50)", "setting": "[4]", "value": 16, "unit": "nM"}, {"measurement": "IC50 values for cAMP inhibition", "setting": "[2]", "value": 0.17, "unit": "nM"}, {"measurement": "EC50", "setting": "[5]", "value": 0.73, "unit": "nM"}]}
{"binder": "B7", "values": [{"measurement": "HUVEC growth inhibition rate (IC50)", "setting": "[4]", "value": 5.1, "unit": "nM"}, {"measurement": "IC50 values for cAMP inhibition", "setting": "[2]", "value": 0.07, "unit": "nM"}, {"measurement": "EC50", "setting": "[5]", "value": 0.18, "unit": "nM"}]}
{"binder": "B8", "values": [{"measurement": "IC50 values for cAMP inhibition", "setting": "[2]", "value": 0.26, "unit": "nM"}, {"measurement": "EC50", "setting": "[5]", "value": 0.83, "unit": "nM"}]}
{"binder": "B9", "values": [{"measurement": "IC50 values for cAMP inhibition", "setting": "[2]", "value": 1.35, "unit": "nM"}, {"measurement": "EC50", "setting": "[5]", "value": 3.19, "unit": "nM"}]}
{"binder": "B10", "values": [{"measurement": "IC50 values for cAMP inhibition", "setting": "[2]", "value": 0.17, "unit": "nM"}, {"measurement": "EC50", "setting": "[5]", "value": 1.83, "unit": "nM"}]}
{"binder": "B11", "values": [{"measurement": "IC50 values for cAMP inhibition", "setting": "[2]", "value": 1.07, "unit": "nM"}, {"measurement": "EC50", "setting": "[5]", "value": 3.03, "unit": "nM"}]}
{"binder": "B12", "values": [{"measurement": "IC50 values for cAMP inhibition", "setting": "[2]", "value": 0.5, "unit": "nM"}, {"measurement": "EC50", "setting": "[5]", "value": 2.32, "unit": "nM"}]}
{"binder": "B13", "values": [{"measurement": "HUVEC growth inhibition rate (IC50)", "setting": "[4]", "value": 1.5, "unit": "nM"}, {"measurement": "IC50 values for cAMP inhibition", "setting": "[2]", "value": 0.08, "unit": "nM"}, {"measurement": "EC50", "setting": "[5]", "value": 0.23, "unit": "nM"}]}
